# Target: CD19 on tumor cells (Raji, Raji-Luc, NALM6, Reh) (human) (UniProt P15391)
# Assay: cell-based or functional assay
# Chain of CD19 on tumor cells (Raji, Raji-Luc, NALM6, Reh) (human) (P15391 20-556): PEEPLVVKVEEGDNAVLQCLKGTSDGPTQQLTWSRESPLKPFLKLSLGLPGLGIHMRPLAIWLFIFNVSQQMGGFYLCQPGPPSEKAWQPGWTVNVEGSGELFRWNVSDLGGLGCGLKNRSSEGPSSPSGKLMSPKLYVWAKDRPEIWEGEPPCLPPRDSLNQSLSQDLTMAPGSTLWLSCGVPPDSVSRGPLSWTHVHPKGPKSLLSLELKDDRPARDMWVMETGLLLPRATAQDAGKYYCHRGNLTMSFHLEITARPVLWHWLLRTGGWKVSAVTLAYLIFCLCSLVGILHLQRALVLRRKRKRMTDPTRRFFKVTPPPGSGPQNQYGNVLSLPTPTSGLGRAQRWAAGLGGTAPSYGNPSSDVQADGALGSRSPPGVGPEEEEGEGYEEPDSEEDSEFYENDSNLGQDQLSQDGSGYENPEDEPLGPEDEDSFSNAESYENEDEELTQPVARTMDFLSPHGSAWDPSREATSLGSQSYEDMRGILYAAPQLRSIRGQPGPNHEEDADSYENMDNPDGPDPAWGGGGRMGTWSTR
substance,measurement,value
Blincyto (bispecific antibody),EC50 of CIK-mediated killing of NALM6 cells,0.0773 nM
same,EC50 of CIK-mediated killing of Raji-LUC cells,0.000595 nM
same,"EC50 of CIK-mediated killing of Raji-LUC cells, second row",0.00565 nM
same,EC50 of CIK-mediated killing of Reh cells,0.0119 nM
same,EC50 of PBMC-mediated killing of Raji-LUC cells,0.00545 nM
same,"EC50 of PBMC-mediated killing of Raji-LUC cells, second row",0.0212 nM
same,"EC50 of PBMC-mediated killing of Raji-LUC cells, third row",0.0226 nM
same,EC50 of activation of Jurkat T cells with NFAT RE reporter in the presence of Raji target cells,2.71 nM
